Values belong to the substance of their own block, whether it stands above or below them.
Legend:
L67V SOD1 (human) [1] = biological target: L67V SOD1 (human) (UniProt P00441); assay: SEC; metal-free (apo) form at time zero, before incubation; gel filtration chromatography
L67V SOD1 (human) [2] = biological target: L67V SOD1 (human) (UniProt P00441); assay: SEC; zinc-reconstituted form; gel filtration chromatography; 100 µM (as dimer), 20 mM phosphate pH 7; no larger species also after more than a month at 37°C
T54R SOD1 (human) [3] = biological target: T54R SOD1 (human) (UniProt P00441); assay: SEC; metal-free (apo) form at time zero, before incubation; gel filtration chromatography
T54R SOD1 (human) [4] = biological target: T54R SOD1 (human) (UniProt P00441); assay: SEC; zinc-reconstituted form; gel filtration chromatography; 100 µM (as dimer), 20 mM phosphate pH 7; no larger species also after more than a month at 37°C
I113T SOD1 (human) [5] = biological target: I113T SOD1 (human) (UniProt P00441); assay: SEC; metal-free (apo) form at time zero, before incubation; gel filtration chromatography
I113T SOD1 (human) [6] = biological target: I113T SOD1 (human) (UniProt P00441); assay: SEC; zinc-reconstituted form; gel filtration chromatography; 100 µM (as dimer), 20 mM phosphate pH 7; no larger species also after more than a month at 37°C
I35T SOD1 (human) [7] = biological target: I35T SOD1 (human) (UniProt P00441); assay: SEC; metal-free (apo) form at time zero, before incubation; gel filtration chromatography
I35T SOD1 (human) [8] = biological target: I35T SOD1 (human) (UniProt P00441); assay: SEC; zinc-reconstituted form; gel filtration chromatography; 100 µM (as dimer), 20 mM phosphate pH 7; no larger species also after more than a month at 37°C
L144F SOD1 (human) [9] = biological target: L144F SOD1 (human) (UniProt P00441); assay: SEC; metal-free (apo) form at time zero, before incubation; gel filtration chromatography
L144F SOD1 (human) [10] = biological target: L144F SOD1 (human) (UniProt P00441); assay: SEC; zinc-reconstituted form; gel filtration chromatography; 100 µM (as dimer), 20 mM phosphate pH 7; no larger species also after more than a month at 37°C
D90A SOD1 (human) [11] = biological target: D90A SOD1 (human) (UniProt P00441); assay: SEC; metal-free (apo) form at time zero, before incubation; gel filtration chromatography
D90A SOD1 (human) [12] = biological target: D90A SOD1 (human) (UniProt P00441); assay: SEC; zinc-reconstituted form; gel filtration chromatography; 100 µM (as dimer), 20 mM phosphate pH 7; no larger species also after more than a month at 37°C
G93A SOD1 (human) [13] = biological target: G93A SOD1 (human) (UniProt P00441); assay: SEC; metal-free (apo) form at time zero, before incubation; gel filtration chromatography
G93A SOD1 (human) [14] = biological target: G93A SOD1 (human) (UniProt P00441); assay: SEC; zinc-reconstituted form; gel filtration chromatography; 100 µM (as dimer), 20 mM phosphate pH 7; no larger species also after more than a month at 37°C
V87M SOD1 (human) [15] = biological target: V87M SOD1 (human) (UniProt P00441); assay: SEC; metal-free (apo) form at time zero, before incubation; gel filtration chromatography
V87M SOD1 (human) [16] = biological target: V87M SOD1 (human) (UniProt P00441); assay: SEC; zinc-reconstituted form; gel filtration chromatography; 100 µM (as dimer), 20 mM phosphate pH 7; no larger species also after more than a month at 37°C
V97M SOD1 (human) [17] = biological target: V97M SOD1 (human) (UniProt P00441); assay: SEC; metal-free (apo) form at time zero, before incubation; gel filtration chromatography
V97M SOD1 (human) [18] = biological target: V97M SOD1 (human) (UniProt P00441); assay: SEC; zinc-reconstituted form; gel filtration chromatography; 100 µM (as dimer), 20 mM phosphate pH 7; no larger species also after more than a month at 37°C
I113F SOD1 (human) [19] = biological target: I113F SOD1 (human) (UniProt P00441); assay: SEC; metal-free (apo) form at time zero, before incubation; gel filtration chromatography
I113F SOD1 (human) [20] = biological target: I113F SOD1 (human) (UniProt P00441); assay: SEC; zinc-reconstituted form; gel filtration chromatography; 100 µM (as dimer), 20 mM phosphate pH 7; no larger species also after more than a month at 37°C
G93D SOD1 (human) [21] = biological target: G93D SOD1 (human) (UniProt P00441); assay: SEC; metal-free (apo) form at time zero, before incubation; gel filtration chromatography
G93D SOD1 (human) [22] = biological target: G93D SOD1 (human) (UniProt P00441); assay: SEC; zinc-reconstituted form; gel filtration chromatography; 100 µM (as dimer), 20 mM phosphate pH 7; no larger species also after more than a month at 37°C

Substance: L67V SOD1 (from UniProt P00441 8-154) (enzyme)
stoichiometry N (L67V SOD1 (human) [1]): 2
stoichiometry N (L67V SOD1 (human) [2]): 2

Substance: I113T SOD1 (from UniProt P00441 8-154) (enzyme)
stoichiometry N (I113T SOD1 (human) [5]): 2
stoichiometry N (I113T SOD1 (human) [6]): 2

Substance: I35T SOD1 (from UniProt P00441 8-154) (enzyme)
stoichiometry N (I35T SOD1 (human) [7]): 2
stoichiometry N (I35T SOD1 (human) [8]): 2

Substance: L144F SOD1 (from UniProt P00441 8-154) (enzyme)
stoichiometry N (L144F SOD1 (human) [9]): 2
stoichiometry N (L144F SOD1 (human) [10]): 2

Substance: D90A SOD1 (from UniProt P00441 8-154) (enzyme)
stoichiometry N (D90A SOD1 (human) [11]): 2
stoichiometry N (D90A SOD1 (human) [12]): 2

Substance: G93A SOD1 (from UniProt P00441 8-154) (enzyme)
stoichiometry N (G93A SOD1 (human) [13]): 2
stoichiometry N (G93A SOD1 (human) [14]): 2

Substance: V87M SOD1 (from UniProt P00441 8-154) (enzyme)
stoichiometry N (V87M SOD1 (human) [15]): 2
stoichiometry N (V87M SOD1 (human) [16]): 2

Second part, the substance after the results:

stoichiometry N (T54R SOD1 (human) [3]): 2
stoichiometry N (T54R SOD1 (human) [4]): 2
Substance: T54R SOD1 (from UniProt P00441 8-154) (enzyme)

stoichiometry N (V97M SOD1 (human) [17]): 2
stoichiometry N (V97M SOD1 (human) [18]): 2
Substance: V97M SOD1 (from UniProt P00441 8-154) (enzyme)

stoichiometry N (I113F SOD1 (human) [19]): 2
stoichiometry N (I113F SOD1 (human) [20]): 2
Substance: I113F SOD1 (from UniProt P00441 8-154) (enzyme)

stoichiometry N (G93D SOD1 (human) [21]): 2
stoichiometry N (G93D SOD1 (human) [22]): 2
Substance: G93D SOD1 (from UniProt P00441 8-154) (enzyme)
